Test results published in patent US20260174880.

Biological target: cytosolically localized BRD4 (lacks NLS), O60885

B1: BTK-FLAG (Bruton's Tyrosine Kinase, FLAG-tagged, expressed in HEK293T cells and treated with BTK-BRD4 PHICS) (protein)
chain: MAAVILESIFLKRSQQKKKTSPLNFKKRLFLLTVHKLSYYEYDFERGRRGSKKGSIDVEKITCVETVVPEKNPPPERQIPRRGEESSEMEQISIIERFPYPFQVVYDEGPLYVFSPTEELRKRWIHQLKNVIRYNSDLVQKYHPCFWIDGQYLCCSQTAKNAMGCQILENRNGSLKPGSSHRKTKKPLPPTPEEDQILKKPLPPEPAAAPVSTSELKKVVALYDYMPMNANDLQLRKGDEYFILEESNLPWWRARDKNGQEGYIPSNYVTEAEDSIEMYEWYSKHMTRSQAEQLLKQEGKEGGFIVRDSSKAGKYTVSVFAKSTGDPQGVIRHYVVCSTPQSQYYLAEKHLFSTIPELINYHQHNSAGLISRLKYPVSQQNKNAPSTAGLGYGSWEIDPKDLTFLKELGTGQFGVVKYGKWRGQYDVAIKMIKEGSMSEDEFIEEAKVMMNLSHEKLVQLYGVCTKQRPIFIITEYMANGCLLNYLREMRHRFQTQQLLEMCKDVCEAMEYLESKQFLHRDLAARNCLVNDQGVVKVSDFGLSRYVLDDEYTSSVGSKFPVRWSPPEVLMYSKFSSKSDIWAFGVLMWEIYSLGKMPYERFTNSETAEHIAQGLRLYRPHLASEKVYTIMYSCWHEKADERPTFKILLSNILDVMDEES
BRD4 phosphorylation (pBRD4 immunoblot) [panel B]: clear pBRD4 band in lane PHICS; no visible band in lanes DMSO and iPHICS; total BRD4 alike in all lanes | BRD4 phosphorylation (pBRD4 immunoblot) [panel C]: strongest pBRD4 band in lane PHICS; weak bands in lanes DMSO and iPHICS; total BRD4 alike in all lanes | BRD4 phosphorylation (pBRD4 immunoblot) [panel F]: clear pBRD4 band in lane 5; barely visible signal in lanes DMSO and 6; total BRD4 alike in all lanes | BRD4 phosphorylation (pBRD4 immunoblot) [panel G]: clear pBRD4 band in lane 7; no visible band in lanes DMSO and 8; total BRD4 alike in all lanes
